B1: COUP transcription factor 1, residues 83 to 159; numbered along this chain, P10589 (parent)
chain: HIECVVCGDKSSGKHYGQFTCEGCKSFFKRSVRRNLTYTCRANRNCPIDQHHRNQCQYCRLKKCLKVGMRREAVQRG

Variants of: B1
Experiment: abundance fitness (aPCA) (normalised: wild type 0, dead -1); higher = more abundant; growth selection in yeast, the domain comes from the species named
Details: Homo sapiens

Abundance fitness of substitutions, site by site:
G8: Q 0.146; R 0.014; S 0.077; T -0.237; V -0.791; W -0.218
D9: A -0.128; C -0.625; F -0.045; G -0.057; H -0.636; I -0.203; K -0.083; L -0.234; M 0.065; N -0.099; P -0.863; Q 0.104; R -0.018; S -0.02; T -0.047; V -0.304; W -0.14; Y -0.381
K10: A -0.332; C -0.105; D 0.16; E -0.104; F -0.029; G -0.114; H -0.288; L -0.313; M -0.067; P 0.051; Q 0.022; R -0.214; S -0.153; T 0.056; V -0.235; W -0.233; Y 0.045
S11: A -0.184; C 0.182; D -0.28; E -0.314; F 0.085; G -0.071; H 0.314; L -0.281; M -0.101; N -0.155; Q 0.01; R -0.377; T -0.044; V -0.399; W -0.236; Y 0.177
S12: A -0.018; C -0.578; E 0.1; G 0.021; H -0.096; I -0.027; K -0.194; L -0.247; M -0.113; N 0.003; P -0.094; Q 0.007; R -0.205; T 0.165; V 0.076; W -0.675; Y -0.489
G13: A 0.171; C -0.95; D 0.053; E 0.089; F -0.206; H -0.306; I -0.199; L -0.358; M -0.049; N -0.068; P -0.175; Q 0.074; R -0.243; S -0.193; T -0.115; V -0.288; W -1.04
K14: D 0.228; E 0.417; G -0.315; H 0.524; L 0.111; M 0.016; N 0.019; P 0.201; Q 0.274; R -0.217; S 0.174; T -0.113; V 0.115; W -0.423; Y -0.068
H15: A -0.029; C -0.362; D -0.226; E 0.202; G -0.101; K -0.857; L 0.001; M 0.548; N 0.148; P 0.125; Q -0.052; R -0.364; S -0.212; T -0.28; V -0.135; W 0.196; Y -0.144
Y16: A -0.441; C 0.074; D 0.111; E -0.05; F 0.201; G -0.157; I -0.297; K -0.209; L -0.152; M -0.154; N -0.539; P -0.355; Q 0.096; R -0.31; S -0.047; T -0.274; V -0.151; W 0.132
G17: A -0.358; C -0.274; D -0.072; E -0.156; H -0.459; I -0.515; K -0.452; L -0.437; M -0.703; N -0.165; P -0.572; Q 0.044; R -0.421; S -0.191; T -0.319; V -0.421; Y -0.396
Q18: A 0.098; C 0.187; D 0.08; E 0.143; F 0.151; G -0.061; I -0.051; K -0.031; L 0.01
